IntAct's records for PubMed 27773430

Columns and labels:
pidd1_human PIDD1 = pidd1_human PIDD1 (UniProt Q9HB75)
casp2_rat Casp2 = casp2_rat Casp2 (UniProt P55215)
Chain of casp2_rat Casp2 (P55215 whole entry): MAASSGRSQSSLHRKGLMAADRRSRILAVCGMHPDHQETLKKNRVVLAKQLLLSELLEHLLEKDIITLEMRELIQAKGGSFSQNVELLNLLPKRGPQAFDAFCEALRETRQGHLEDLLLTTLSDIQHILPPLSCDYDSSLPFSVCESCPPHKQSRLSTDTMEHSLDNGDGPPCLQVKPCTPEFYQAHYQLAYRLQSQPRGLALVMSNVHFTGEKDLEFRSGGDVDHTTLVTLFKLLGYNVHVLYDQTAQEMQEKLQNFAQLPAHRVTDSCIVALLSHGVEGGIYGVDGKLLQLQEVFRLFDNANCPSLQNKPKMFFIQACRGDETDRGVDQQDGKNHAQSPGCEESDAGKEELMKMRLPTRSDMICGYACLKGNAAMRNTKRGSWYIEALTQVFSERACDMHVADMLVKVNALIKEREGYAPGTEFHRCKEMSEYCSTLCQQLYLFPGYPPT

Chain of pidd1_human PIDD1 (Q9HB75 whole entry): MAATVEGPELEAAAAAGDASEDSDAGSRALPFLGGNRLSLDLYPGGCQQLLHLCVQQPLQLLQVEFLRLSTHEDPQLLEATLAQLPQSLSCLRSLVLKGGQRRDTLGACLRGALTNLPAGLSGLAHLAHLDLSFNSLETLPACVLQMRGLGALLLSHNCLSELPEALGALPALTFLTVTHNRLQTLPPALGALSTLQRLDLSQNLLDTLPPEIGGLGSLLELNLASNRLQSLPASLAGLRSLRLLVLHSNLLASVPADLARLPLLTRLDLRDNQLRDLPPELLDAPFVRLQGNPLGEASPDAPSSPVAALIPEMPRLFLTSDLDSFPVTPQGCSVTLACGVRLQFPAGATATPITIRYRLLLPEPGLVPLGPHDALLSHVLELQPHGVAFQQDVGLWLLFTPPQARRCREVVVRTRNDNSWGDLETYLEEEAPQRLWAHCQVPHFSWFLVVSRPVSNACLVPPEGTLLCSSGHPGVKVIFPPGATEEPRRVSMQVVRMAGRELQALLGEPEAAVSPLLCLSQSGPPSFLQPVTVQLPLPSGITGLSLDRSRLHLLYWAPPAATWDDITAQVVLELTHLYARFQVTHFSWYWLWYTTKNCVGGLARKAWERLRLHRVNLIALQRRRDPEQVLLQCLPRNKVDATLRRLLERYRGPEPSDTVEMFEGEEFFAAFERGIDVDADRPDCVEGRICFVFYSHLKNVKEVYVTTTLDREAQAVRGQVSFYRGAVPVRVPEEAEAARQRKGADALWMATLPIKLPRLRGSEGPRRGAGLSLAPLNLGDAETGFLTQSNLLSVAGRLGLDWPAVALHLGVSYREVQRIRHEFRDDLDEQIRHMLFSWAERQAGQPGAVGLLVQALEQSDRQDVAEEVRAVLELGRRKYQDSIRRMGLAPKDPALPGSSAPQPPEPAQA
Chain of Death domain-containing protein CRADD (Homo sapiens), P78560 G128R (P78560 whole entry G128R, the tested form may be a part): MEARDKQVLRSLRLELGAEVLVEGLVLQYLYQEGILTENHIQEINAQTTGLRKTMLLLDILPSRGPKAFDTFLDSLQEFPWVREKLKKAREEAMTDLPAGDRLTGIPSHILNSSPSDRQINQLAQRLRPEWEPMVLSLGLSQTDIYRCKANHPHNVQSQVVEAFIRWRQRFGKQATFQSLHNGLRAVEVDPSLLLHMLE
Chain of Death domain-containing protein CRADD (Homo sapiens), P78560 R170C (P78560 whole entry R170C, the tested form may be a part): as the sequence (P78560 whole entry G128R, the tested form may be a part) above, with R128G, R170C counted along it
Chain of Death domain-containing protein CRADD (Homo sapiens), P78560 F164C (P78560 whole entry F164C, the tested form may be a part): as the sequence (P78560 whole entry G128R, the tested form may be a part) above, with R128G, F164C counted along it
Chain of Death domain-containing protein CRADD (Homo sapiens), P78560 R170H (P78560 whole entry R170H, the tested form may be a part): as the sequence (P78560 whole entry G128R, the tested form may be a part) above, with R128G, R170H counted along it

Substance	effect of a mutation on the interaction (pidd1_human PIDD1)	effect of a mutation on the interaction (casp2_rat Casp2)
Death domain-containing protein CRADD (Homo sapiens), P78560 F164C	with no effect	with no effect
Death domain-containing protein CRADD (Homo sapiens), P78560 G128R	disrupting interaction strength	decreasing interaction strength
Death domain-containing protein CRADD (Homo sapiens), P78560 R170C	decreasing interaction strength	decreasing interaction strength
Death domain-containing protein CRADD (Homo sapiens), P78560 R170H	decreasing interaction strength	decreasing interaction strength
